Experiment [1] has as its target Human FXIIa (activated Factor XII) (human) (UniProt P00748). Description: cell-based or functional assay.
For experiment [2], the target named is Human FXIIa beta (human) (UniProt P00748). Nature of the experiment: Biacore, KD against parental 3F7 (the reference itself). (Surface plasmon resonance follows binding to a sensor surface in real time, without labels.)
The target is the same in experiment [3]. Nature of the experiment: Biacore, purified IgG4 captured on anti-human IgG, FXIIa beta injected, 1:1 model.
For experiment [4] the target is unchanged. Nature of the experiment: Biacore, purified IgG captured on anti-human IgG, FXIIa beta injected at 0-40 nM, 1:1 model, 25°C.
The target in experiment [5] is T1, Human FXII (unactivated Factor XII) (human, UniProt P00748 20-615).
T1 construct: Bought from Enzyme Research Laboratories; also called Hageman factor
T1 sequence: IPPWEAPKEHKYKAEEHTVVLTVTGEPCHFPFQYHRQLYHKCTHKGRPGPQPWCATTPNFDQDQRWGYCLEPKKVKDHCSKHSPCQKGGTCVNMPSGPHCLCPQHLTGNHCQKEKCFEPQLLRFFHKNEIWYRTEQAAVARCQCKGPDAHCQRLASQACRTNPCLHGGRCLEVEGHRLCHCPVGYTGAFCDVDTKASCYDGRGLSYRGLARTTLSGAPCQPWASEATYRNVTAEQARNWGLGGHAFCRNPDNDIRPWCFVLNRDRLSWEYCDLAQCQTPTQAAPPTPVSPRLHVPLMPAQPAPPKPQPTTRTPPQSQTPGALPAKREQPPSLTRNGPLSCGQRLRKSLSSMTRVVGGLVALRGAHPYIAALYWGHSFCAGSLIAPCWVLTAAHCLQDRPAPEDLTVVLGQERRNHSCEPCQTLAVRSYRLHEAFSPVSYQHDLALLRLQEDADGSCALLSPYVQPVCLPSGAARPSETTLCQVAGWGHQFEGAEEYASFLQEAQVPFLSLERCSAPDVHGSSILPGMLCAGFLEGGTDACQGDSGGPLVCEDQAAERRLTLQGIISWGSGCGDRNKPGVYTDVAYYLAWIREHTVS
Description: Biacore, purified IgG captured on anti-human IgG, FXII injected at 0-500 nM, 1:1 model, 25°C.

The term Kd denotes a measure of binding affinity in units of concentration. A lower Kd goes with tighter binding. By koff is commonly meant a measure of how fast the partners let go of each other. Lower therefore signals slow dissociation. By kon is commonly meant the second-order rate constant of association. The low end stands for slower complex formation, the high end for faster complex formation.

B1: 3F7 monoclonal antibody (fully human IgG4/lambda) (antibody, V domains shown)
VH: EVQLLESGGGLVQPGGSLRLSCAASGFTFSKYIMQWVRQAPGKGLEWVSGIRPSGGTTVYADSVKGRFTISRDNSKNTLYLQMNSLRAEDTAVYYCARALPRSGYLISPHYYYYALDVWGQGTTVTVSS
VL: QSELTQPPSASGTPGQRVTISCSGSSSNIGRNYVYWYQQVPGTAPKLLIYSNNQRPSGVPDRFSGSKSGTSASLVISGLRSEDEADYYCAAWDASLRGVFGGGTKLTVLG
notes: also called 3F7 mAb; MAb 3F7
B1 came in with a potency in FXIIa amidolytic activity assay, against OT2 in experiment [1] of 2 fold. Also, in the experiment with Human FXIIa beta (human) [2], the Fold affinity improvement was 1 fold. In the experiment with Human FXIIa beta (human) [3], this molecule came in with a dissociation constant (Kd) of 8.6 nM, a koff of 0.0011 s⁻¹ and a kon of 120000 M⁻¹ s⁻¹. In addition, in the experiment with Human FXIIa beta (human) [4], the Kd is 6.2 nM. In experiment [5], this molecule gave a Kd of 121 nM.
